According to US11607390B2, “Self-righting systems and related components and methods” (priority 2017, dated 2023):

Tested on: Micrococcus lysodelkticus cells
Assay: Lysozyme enzyme activity assay
Assay type: biochemical
Details: micropost tips 80% lysozyme, 20% PEO 200k vs uncompressed
Description: […] assays were performed on the dissolved solution.
To measure the activity of lysozyme, the assay provided by Sigma Aldrich was used which measures the amount of lysed Micrococcus lysodelkticus cells. Briefly, a 200 unit/mL Lysozyme solution in 50 mM Potassium Phosphate Buffer was added to a 0.015% [w/v] Micrococcus lysodeiklicus cell suspension in the same buffer. The decrease was recorded in A450 over 5 minutes. Nine micropost tips were fabricated from 80% lysozyme and 20% PEO 200k and dissolved sets of three micropost tips together. Triplicate assays were performed on each dissolved solution for a total of nine tests and the results were compared to the results of a solution made with lysozyme that was not compressed into a micropost tip.

In the case of lysozyme, the “enzymatic activity after the manufacturing process” value was “maintain their activity”.
